We go through one molecule from article PMC11551393 (Proceedings of the National Academy of Sciences of the …, 2024).

Data set [1] deals with T1, Bdf1(372-554) (in the fused complex for cryo-EM) (S. pombe, UniProt Q9Y7N0 372-554).
T1 sequence (looked up): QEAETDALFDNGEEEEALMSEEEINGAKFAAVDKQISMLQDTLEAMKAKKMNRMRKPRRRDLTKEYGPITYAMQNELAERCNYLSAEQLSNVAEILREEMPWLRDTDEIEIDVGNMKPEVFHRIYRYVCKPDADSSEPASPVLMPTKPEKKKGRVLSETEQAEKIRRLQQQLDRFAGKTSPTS
As to the kind of experiment: cryo-EM structure.

The data set “cryo-EM structure” concerns the molecule itself. As to the kind of experiment: cryo-EM structure.

B1: Tdk1(211-357) (in the fused complex for cryo-EM) (domain or fragment, S. pombe, UniProt O74876 211-357, looked up)
chain: MDEWRKSTDEWRKSTDERLENLLNIVREILDVQRDMRNDLSNLTRKVDRMDMRLSRNNNMIMRSFAQPITEVPFFNGDIPDPNLPRITRIEDIDSLSEENCTRYLKGYGVSYDENDQSLWKRQLAKAVGLTAAYDESYTFSPFSSSE
As to B1, in data set [1], the binding result is “binds”. Besides, the “stoichiometry N” value in the data set “cryo-EM structure” is 6.
